Data reported in patent publication US20210355166A1, “[…] METHODS OF USE THEREOF” (priority 2018, published 2021).
Non-standard residues stand in square brackets, D forms with d. Residues, ends and D or L forms follow the SMILES beside them. No end group written: not given here. *: point of attachment. βGlc = OC[C@H]1O[C@@H](*)[C@H](O)[C@@H](O)[C@@H]1O; Dmt = Cc1cc(O)cc(C)c1C[C@H](N)C(=O)O

B1: bilaid A (H-FvVf-OH; L-Phe-D-Val-L-Val-D-Phe) (peptide)
peptide: H-F[dV]V[dF]-OH
SMILES: CC(C)[C@H](NC(=O)[C@H](NC(=O)[C@@H](N)Cc1ccccc1)C(C)C)C(=O)N[C@H](Cc1ccccc1)C(=O)O
notes: Natural product of Penicillium sp; MST-MF667; made by Fmoc synthesis for the assays; also called 1a; peptide 1a
B2: bilaid C (H-YvVf-OH; L-Tyr-D-Val-L-Val-D-Phe) (peptide)
peptide: YVVF
modifications: D-Val at 2; D-Phe at 4; free C-terminal acid
notes: Natural product of Penicillium sp; MST-MF667; made by Fmoc synthesis; also called 3a; peptide 3a
B3: H-FvVy-NH2 (peptide)
peptide: H-F[dV]V[dY]-NH2
SMILES: CC(C)[C@H](NC(=O)[C@H](NC(=O)[C@@H](N)Cc1ccccc1)C(C)C)C(=O)N[C@H](Cc1ccc(O)cc1)C(N)=O
B4: H-FGVy-NH2 (peptide)
peptide: H-FGV[dY]-NH2
SMILES: CC(C)[C@H](NC(=O)CNC(=O)[C@@H](N)Cc1ccccc1)C(=O)N[C@H](Cc1ccc(O)cc1)C(N)=O
B5: bilaid B (H-FvVy-OH) (peptide)
peptide: H-F[dV]V[dY]-OH
SMILES: CC(C)[C@H](NC(=O)[C@H](NC(=O)[C@@H](N)Cc1ccccc1)C(C)C)C(=O)N[C@H](Cc1ccc(O)cc1)C(=O)O

Columns and labels:
human MOPr (hMOPr) = target: T1, human MOPr (hMOPr) (Homo sapiens, UniProt P35372); experiment: Inhibition of forskolin induced cAMP formation in HEK cells expressing hMOPr; type: cell-based; conditions: for activity in cAMP screen: 10 μM; for TetraQ, initial screen % inhibition of forskolin-stimulate cAMP formation in hMOPr HEK cells: 10 um
T1 construct: expressed in transfected cells; host or cells: HEK cells
T1 sequence (P35372 whole entry): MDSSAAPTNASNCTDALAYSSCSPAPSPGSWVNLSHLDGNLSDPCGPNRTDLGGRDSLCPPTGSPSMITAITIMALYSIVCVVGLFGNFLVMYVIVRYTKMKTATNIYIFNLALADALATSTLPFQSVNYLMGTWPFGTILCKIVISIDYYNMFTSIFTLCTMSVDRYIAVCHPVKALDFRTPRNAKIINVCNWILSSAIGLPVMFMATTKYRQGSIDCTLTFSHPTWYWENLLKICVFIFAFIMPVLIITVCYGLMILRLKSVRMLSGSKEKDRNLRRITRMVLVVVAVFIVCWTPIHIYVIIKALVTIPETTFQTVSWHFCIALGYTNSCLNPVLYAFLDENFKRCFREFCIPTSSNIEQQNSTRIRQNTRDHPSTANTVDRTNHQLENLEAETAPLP
Experimental: Procedure for measuring the level of intracellular cAMP produced upon modulation of adenylate cyclase activity by G-protein-coupled receptors (GPCRs). To test the functional interaction between opioids, and opioid-like compounds, and specific opioid GPCRs by measuring changes in intracellular cAMP levels relative to basal levels. The assay can measure agonist and antagonist activity on GPCRs by stimulating cells to either increase or decrease intracellular cAMP levels.
The assay is performed in a 384-well plate and each data point is performed in triplicate. The test compounds should be analyzed on the same plate as controls and cAMP standards. The number of compounds to be screened for activity will determine the volume of reagents and cells required for each experiment. The test compounds, controls and cAMP standards can be added to the plate in advance or while the cells are incubating with stimulation buffer. The plate should be sealed with TopSeal adhesive sealing film to avoid evaporation.
Assay background: Detection of cAMP is based on the competition between intracellular cAMP and biotinylated cAMP linked streptavidin-coated donor beads for anti-cAMP conjugated acceptor beads. When the donor and acceptor beads are in close proximity a signal emitted at 520-620 nm is detected using the Envision multilabel plate reader.
Preparation of test peptides: Test peptides are typically tested at a final concentration of 10 μM. As most test peptides are dissolved in 100% DMSO it is recommended that the DMSO concentration is limited to 2% v/v during cell stimulation to ensure maximum cell viability and responsiveness. Prepare 1 mM and 100 μM stock solutions of test peptides in an appropriate diluent and store at 4° C. For a library of peptides this can be performed in 96 well plates sealed with silicon sealing mats. Test peptides are diluted fresh from stock solutions to a working concentration in stimulation buffer with forskolin. It should be noted that as peptides are diluted 1:1 with cells in the assay the working concentration should be twice the final required concentration. It may be necessary to perform assays on compounds freshly diluted from DMSO stocks compounds to avoid experimental variability.
Preparation of cells: For best results cells should be low passage at 70-90% confluence. To prepare cells for the assay remove growth medium, add Versene and then incubate at 37° C. for approximately 5 minutes to allow cells to detach from the tissue culture plastic. Collect cells and centrifuge for 2 minutes at 275×g. Decant the supernatant and resuspend the cell pellet in 1×PBS. Determine the cell concentration using a haemocytometer. Re-centrifuge cells for 2 minutes at 275×g and decant supernatant. Resuspend cells in stimulation buffer to a final concentration of 1-4×10^4 cells per ml. Note that the cells number will influence the cAMP levels prevailing before (basal) and after adenylate cyclase activation. A cell titration should be performed to optimize the difference between basal and stimulation levels of cAMP. Cells are incubated in stimulation buffer for 20 to 30 minutes at 37° C. prior to adding 5 μl to wells containing test and control compounds. Note that cells are not added to the cAMP standards.
1. Add standards (10 μl/well), control compounds (5 μl/well) and test peptides (5 μl/well) into 384-well plates and seal with Top Seal adhesive sealing film. Leave at room temperature until the cell incubation is complete. 2. Add 5 μl cells incubated in stimulation buffer to the wells containing test peptides and control compounds, but not to the standards. Incubate cells and compounds for 30 min at 37° C. 3. Add 10 μl lysis buffer per well. 4. Under subdued lighting add 5 μl acceptor bead solution to each well. Wrap plate in foil and incubate at room temperature with gentle mixing on an orbital shaker for 60 min. 5. […]

C57BL/6 mice = experiment: Nociception (analgesia) testing on 54 C hotplate; type: in vivo, mouse; conditions: 54° C. hotplate, s.c.
Experimental: Experiments were performed under the guidelines of the Australian code of practice for the care and use of animals for scientific purposes (National Health and Medical Research Council, Australia, 7th Edition). Great care was taken to minimise animal suffering during these experiments and to reduce the number of animals used. […] Food and water was available ad libitum. Mice were given at least 7 days to habituate to housing facilities prior to handling, and handled by the experimenter for 4 days prior to testing. […] The experimenter was blind to all drugs tested. Animals were tested on a 54° C. hotplate, with a maximum cut-off time of 20 seconds to prevent tissue damage. Endpoints were hindpaw lick, hindpaw flutter or jump. […] The percentage of maximal possible effects (% MPE) were calculated as follows: % MPE=(test latency−baseline latency)/(cutoff latency−baseline latency)×100%. The cut-off latency was 20 seconds. Significant differences were assessed with a two-way ANOVA and Tukey's post hoc multiple comparisons test. […] Doses were transformed to the logarithm of μmol/kg. A two-way ANOVA was used to compare data at equimolar doses.

[1] = target: T2, human µ-opioid receptor (hMOPr), human recombinant MOPr expressed in HEK-293 cells (human, UniProt P35372 1-400); experiment: competition with [3H]DAMGO (0.5 nM), membranes with human recombinant MOPr (HEK-293), filtration and scintillation counting
T2 construct: whole, on cells; the cAMP assay used whole HEK cells expressing hMOPr
T2 sequence (P35372 whole entry): as above
Experimental: The specific ligand binding to the receptors is defined as the difference between the total binding and the nonspecific binding determined in the presence of an excess of an unlabelled opioid ligand (naloxone, 10 μM). The results are expressed as a percent of control specific binding ((measured specific binding/control specific binding)×100) obtained in the presence of unlabelled peptides of interest. The IC₅₀ values (concentration causing a half-maximal inhibition of control specific binding) and Hill coefficients (nH) were determined by non-linear regression analysis of the competition curves generated with mean replicate values using Hill equation curve fitting (Y=D+[(A−D)/(1+(C/C₅₀nH)], where Y=specific binding, D=minimum specific binding, A=maximum specific binding, C=compound concentration, C₅₀=IC₅₀, and nH=slope factor).

[2] = target: T2, human µ-opioid receptor (hMOPr), human …; experiment: cell-based or functional assay

Molecule	TetraQ, initial screen % inhibition of forskolin-stimulate cAMP formation in hMOPr HEK cells (human MOPr (hMOPr))	% inhibition of forskolin-stimulate cAMP formation in hMOPr HEK cells (10 um) [2]	further results
CC(C)[C@H](NC(=O)[C@H](NC(=O)[C@@H](N)Cc1ccccc1)C(C)C)C(=O)N[C@H](Cc1ccccc1)C(=O)O [peptide 1a, L-Phe-D-Val-L-Val-D-Phe] (H-F[dV]V[dF]-OH)	21%	–	activity in cAMP screen (human MOPr (hMOPr)): showed activity
H-FVvf-OH [1c]	0%	–	activity in cAMP screen (human MOPr (hMOPr)): inactive
H-FvVy-NH2 [2b]	0%	–	activity in cAMP screen (human MOPr (hMOPr)): Neither Bilaid B (2a) nor its C-terminal carboxamide analogue (2b) showed activity
H-fvVF-OH [1d]	0%	–	–
H-fVvF-NH2 [1f]	0%	–	–
H-FGGy-NH2 (H-FGG[dY]-NH2; SMILES NC(=O)[C@@H](Cc1ccc(O)cc1)NC(=O)CNC(=O)CNC(=O)[C@@H](N)Cc1ccccc1) [2f]	0%	–	–
H-FGVy-NH2 (H-FGV[dY]-NH2; SMILES CC(C)[C@H](NC(=O)CNC(=O)[C@@H](N)Cc1ccccc1)C(=O)N[C@H](Cc1ccc(O)cc1)C(N)=O) [2e]	0%	–	–
H-FvVy-OH (H-F[dV]V[dY]-OH; SMILES CC(C)[C@H](NC(=O)[C@H](NC(=O)[C@@H](N)Cc1ccccc1)C(C)C)C(=O)N[C@H](Cc1ccc(O)cc1)C(=O)O) [2a]	0%	–	activity in cAMP screen (human MOPr (hMOPr)): Neither Bilaid B (2a) nor its C-terminal carboxamide analogue (2b) showed activity
H-FVvf-NH2 [1g]	0%	–	–
CC(C)[C@@H](NC(=O)[C@@H](N)Cc1ccccc1)C(=O)NCC(=O)N[C@H](Cc1ccc(O)cc1)C(N)=O [peptide 2d, L-Phe-D-Val-Gly-D-Tyr-NH2] (H-F[dV]G[dY]-NH2)	31%	–	–
2,6-dimethyl-L-tyrosine-D-Val-L-Val-D-Phe-L-Ser(β-D-Glc)-NH2 ([Dmt][dV]V[dF]S(βGlc)-NH2; N-terminus assumed; SMILES Cc1cc(O)cc(C)c1C[C@H](N)C(=O)N[C@@H](C(=O)N[C@H](C(=O)N[C@H](Cc1ccccc1)C(=O)N[C@@H](CO[C@@H]1O[C@H](CO)[C@@H](O)[C@H](O)[C@H]1O)C(N)=O)C(C)C)C(C)C) [peptide 3h]	–	–	analgesic activity after systemic administration (C57BL/6 mice): systemically inactive
H-fVvF-OH [1b]	0%	–	activity in cAMP screen (human MOPr (hMOPr)): inactive
CC(C)[C@H](NC(=O)[C@H](NC(=O)[C@@H](N)Cc1ccc(O)cc1)C(C)C)C(=O)N[C@H](Cc1ccccc1)C(=O)O [peptide 3a, L-Tyr-D-Val-L-Val-D-Phe]	–	–	activity in cAMP screen (human MOPr (hMOPr)): showed activity
H-FVVY-NH2 [2c]	0%	–	–
C[C@@H](NC(=O)[C@@H](N)Cc1ccc(O)cc1)C(=O)NCC(=O)N(C)[C@@H](Cc1ccccc1)C(=O)NCCO [DAMGO, [D-Ala^2, N-MePhe^4, Gly^5-ol]-enkephalin, reference compound]	DAMGO = 94%)	–	–
B1	–	21%	Ki [1]: 3100 nM
B2	–	77%	Ki [1]: 210 nM
B3	–	0%	–
FVVF (D-Phe at 1; D-Val at 3; C-terminal amide) [H-fVvF-NH2]	–	0%	–
B4	–	0%	–
FVVF (D-Val at 3; D-Phe at 4; C-terminal amide) [H-FVvf-NH2]	–	0%	–
H-FGG[dY]-NH2 (SMILES NC(=O)[C@@H](Cc1ccc(O)cc1)NC(=O)CNC(=O)CNC(=O)[C@@H](N)Cc1ccccc1) [H-FGGy-NH2]	–	0%	–
B5	–	0%	–
H-[dF]V[dV]F-OH [H-fVvF-OH]	–	0%	–
H-[dF][dV]VF-OH [H-fvVF-OH]	–	0%	–
H-FVVY-NH2 [H-FVVY-NH2]	–	0%	–
H-FV[dV][dF]-OH [H-FVvf-OH]	–	0%	–
